In US20260234242A1 (HAINAN SIMCERE ZAIMING PHARMACEUTICAL, published 2026):
Like-named read-outs stand apart in the source and are kept apart here.

Tests used:
[1] = biological target: T1, human CDH6 on tumor cells (OVCAR3 cells, PA-1 cells) (human, UniProt P55285 54-790); experiment: FACS, PA-1 cells
T1 sequence: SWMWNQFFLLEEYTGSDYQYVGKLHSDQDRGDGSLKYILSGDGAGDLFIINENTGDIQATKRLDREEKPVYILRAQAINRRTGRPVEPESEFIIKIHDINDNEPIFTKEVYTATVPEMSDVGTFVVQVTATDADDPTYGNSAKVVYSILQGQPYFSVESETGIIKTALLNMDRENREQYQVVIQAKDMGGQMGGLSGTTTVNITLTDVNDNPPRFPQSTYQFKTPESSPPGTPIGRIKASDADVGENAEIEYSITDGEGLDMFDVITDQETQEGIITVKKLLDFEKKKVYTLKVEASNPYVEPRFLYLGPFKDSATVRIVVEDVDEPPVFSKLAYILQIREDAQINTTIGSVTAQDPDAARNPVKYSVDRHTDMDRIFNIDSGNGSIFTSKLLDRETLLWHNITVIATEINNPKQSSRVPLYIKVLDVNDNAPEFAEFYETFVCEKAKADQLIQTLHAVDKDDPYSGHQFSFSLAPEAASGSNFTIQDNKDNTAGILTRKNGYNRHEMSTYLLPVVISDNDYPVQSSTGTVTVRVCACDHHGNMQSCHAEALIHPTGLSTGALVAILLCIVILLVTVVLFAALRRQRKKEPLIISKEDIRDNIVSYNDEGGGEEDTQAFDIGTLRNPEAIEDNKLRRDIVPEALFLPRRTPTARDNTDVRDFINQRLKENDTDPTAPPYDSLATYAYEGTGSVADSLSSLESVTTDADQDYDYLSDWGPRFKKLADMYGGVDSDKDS
Experimental: OVCAR3 cells with high expression of CDH6 and PA-1 cells with moderate expression of CDH6 were used to detect the binding activity of the antibodies to the cells. […] The cells were washed once with PBS, counted, resuspended to 2×10⁶ cells/mL in an FACS buffer (PBS+2% FBS), and then added to a 96-well plate at 50 μL/well. The chimeric antibodies were diluted with FACS buffer (PBS+2% FBS) and added to the 96-well plate at 50 μL/well, and the plate was incubated at 4° C. for 1 h. […] The dilution was added to the 96-well plate at 50 μL/well, and the plate was incubated at 4° C. for 1 h. After the plates were centrifuged and washed 2 times with PBS, the cells were resuspended in an FACS buffer. The mean fluorescence intensity (MFI) was measured using FACS Canton II (BD). Analysis was performed by the GraphPad Prism software, data were fitted, and EC50 values were calculated. The chimeric antibodies tested had strong binding to both OVCAR3 cells and PA-1 cells.
According to the above sequences, heavy chain (HC) and light chain (LC) plasmids were constructed (the nucleic acid sequences encoding the VH and VL of the antibodies were recombined into an expression vector carrying a signal peptide (SEQ ID NO: 132, […]) and a heavy chain constant region/light chain constant region sequence to obtain recombinant plasmids expressing VH-CH1-Fc/VL-CL). According to the expression and purification methods in Example 2, the hCDH6-14 humanized antibodies were obtained, and the binding activity of the humanized antibodies was detected by ELISA and FACS (see 2.2 and 2.3 for the method).

[2] = biological target: T2, his-tagged human CDH6 extracellular region protein (hCDH6 ECD-his) (human, UniProt P55285 19-615); experiment: ELISA, coated antigen
T2 construct: also called Human CDH6-his; hCDH6-his; not shown: his tag
T2 sequence: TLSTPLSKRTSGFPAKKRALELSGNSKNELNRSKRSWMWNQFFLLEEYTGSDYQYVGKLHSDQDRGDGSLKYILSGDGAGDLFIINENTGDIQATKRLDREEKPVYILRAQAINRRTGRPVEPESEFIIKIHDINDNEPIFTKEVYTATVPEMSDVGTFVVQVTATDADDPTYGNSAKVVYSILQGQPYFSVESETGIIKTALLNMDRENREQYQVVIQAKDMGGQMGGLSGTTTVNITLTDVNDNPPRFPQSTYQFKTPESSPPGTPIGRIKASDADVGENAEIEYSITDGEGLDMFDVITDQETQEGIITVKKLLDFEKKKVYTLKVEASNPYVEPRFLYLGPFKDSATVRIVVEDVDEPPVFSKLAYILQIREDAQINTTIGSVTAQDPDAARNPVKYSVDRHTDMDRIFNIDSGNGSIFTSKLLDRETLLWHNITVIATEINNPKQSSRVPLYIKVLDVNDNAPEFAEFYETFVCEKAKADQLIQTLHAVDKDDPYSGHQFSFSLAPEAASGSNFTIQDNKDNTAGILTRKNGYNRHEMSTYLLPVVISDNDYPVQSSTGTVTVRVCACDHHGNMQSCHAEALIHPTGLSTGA

[3] = biological target: T1, human CDH6 on tumor cells (OVCAR3 …); experiment: FACS, OVCAR3 cells, 4° C. arm of endocytosis assay
Experimental: OVCAR3 cells were cultured until a confluence of 90% was reached, the medium was removed by pipetting, the cells were washed once with PBS, and then treated with an enzyme-free cell dissociation solution (Versene, purchased from Gibco, Cat. No. 15040-066) and the cells were collected. The cells were washed once with PBS, counted, resuspended to 2×10⁶ cells/mL in an FACS buffer (PBS+2% FBS), and then added to two 96-well plates at 50 μL/well. The chimeric antibodies were diluted with FACS buffer (PBS+2% FBS) to 10 μg/mL and separately added to the two 96-well plates at 50 μL/well, and the plates were incubated at 4° C. for 1 h. After the cells were washed 3 times with PBS, the cells were resuspended in an FACS buffer. One 96-well plate was incubated at 4° C. for 1 h, and the other 96-well plate was incubated at 37° C. for 1 h. […] After the plates were centrifuged and washed 2 times with PBS, the cells were resuspended in an FACS buffer. The mean fluorescence intensity (MFI) was measured using FACS Canton II (BD). The chimeric antibodies tested all had good endocytic activity.
Some of the antibodies were selected for the endocytic activity assay, and the method for assaying the endocytic activity of the humanized antibodies in OVCAR3 cells was the same as that in 2.4. The humanized antibodies tested all had good endocytic activity.

[4] = biological target: T1, human CDH6 on tumor cells (OVCAR3 …); experiment: FACS, OVCAR3 cells
Procedure, shortened: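 OVCAR3 (high CDH6) and PA-1 (moderate CDH6) cells in PBS + 2% FBS were incubated with diluted chimeric antibodies for 1 h at 4° C, then with a further reagent for 1 h at 4° C. After washing, mean fluorescence intensity was read by flow cytometry and EC50 values came from curve fitting.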

[5] = biological target: T2, his-tagged human CDH6 extracellular …; experiment: ELISA, coated antigen; remark: listed apart in the source
Procedure, shortened: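 Plates coated overnight at 4 °C with his-tagged CDH6 ECD (human; also cyno and murine, residues 19-615) at 1 μg/mL. Chimeric antibody dilutions bound 2 h at 37 °C; TMB read-out at OD450 nm, EC50 from fitted curves.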

[6] = biological target: T2, his-tagged human CDH6 extracellular …; experiment: SPR Biacore, antibody captured on Protein A
Experimental: The affinity of the antibody for the antigen was determined by a multi-cycle kinetic method using a BIAcore 8K instrument. In each cycle, the antibody to be tested was captured using a Protein A chip (purchased from GE, Cat. No. 29-1275-56), and then the antigen human CDH6 protein (hCDH6-his, conventionally synthesized) was injected. The association and dissociation processes of the antibody with the antigen protein were recorded, and finally, the chip was regenerated using Glycine pH 1.5, wherein the mobile phase was HBS-EP+ (10 mM HEPES, 150 mM NaCl, 3 mM EDTA, 0.05% surfactant P20, and 1 mM Ca), the flow rate was 30 μL/min, the association time was 240 s, the dissociation time was 300 s, the regeneration time was 30 s, the detection temperature was 25° C., and the antigen concentration was 31.25-1000 nM. The data were analyzed using Biacore 8K analysis software (version No. 2.0) based on the 1:1 binding model to fit the antibody-antigen binding kinetic parameters, including the association rate constant ka, the dissociation rate constant kd, and the equilibrium dissociation constant KD. The affinity values of the control antibody DS-H01L02 were undetectable. Antibodies not shown in the table had undetectable affinity values.
Four hCDH6-6 humanized antibodies with fewer back mutations were selected, and the affinity for human CDH6 protein was further confirmed using Biacore.

B1: hCDH6-14-H6L3 (antibody, V domains shown)
VH: EVQLVQSGAEVKKPGASVKVSCKASGYTFTDNYINWVRQAPGQRLEWMGWIYPGTGNSYYNEKFKGRVTITVDTSASTAYMELSSLRSEDTAVYLCASSYGDSFDYWGQGTTVTVSS
VL: DIVMTQSPDSLAVSLGERATINCRASQDIRNYLNWYQQKPGQTPKLLISYTSRLHSGVPDRFSGSGSGTDFTLTISSLQAEDVAVYYCQQYSQLPWTFGGGTKVEIK
notes: Humanized
EC50 [1]: 0.25 nM
Max MFI [1]: 3890 MFI
EC50 [2]: 0.062 nM
Max OD450 [2]: 2.72 OD450
MFI_4° C. [3]: 16100 MFI

B2: hCDH6-6-H2L1 (antibody, V domains shown)
VH: EVQLVQSGAEVKKPGASVKVSCKASGYTFTDYYMAWVRQAPGQGLEWMGYIFPNSGGTDYSQKFKGRVTLTVDKSTSTVYMELSSLRSEDTAVYYCARELGADYGDYYAMDHWGQGTTVTVSS
VL: DIQMTQSPSSLSASVGDRVTITCRASENIDSYLAWYQQKPGKSPKLLLYSATLLADGVPSRFSGSGSGTDYTLTISSLQPEDFATYYCQHYYRTPPTFGQGTKLEIK
notes: Humanized
EC50 [4]: 0.61 nM
Max MFI [4]: 14000 MFI
EC50 [5]: 0.032 nM
Max OD450 [5]: 2.01 OD450
Kd [6]: 133 nM
koff [6]: 0.00616 s⁻¹
kon [6]: 46200 M⁻¹ s⁻¹
